From patent US20050048050A1 (CITY OF HOPE, published 2005)
One block for each binder: values may come before it.

Target: T1, purified human insulin-like growth factor I receptor (IGF-IR) (human, UniProt P08069 31-1367, limits assumed)
T1 construct: The natural receptor is made of alpha and beta subunits from one precursor; also called IGF-R; human IGF-1 receptor
Experiment: SPR (BIAcore), IGF-IR immobilised on the chip, antibody as analyte
Procedure: The affinity constants of 1H7 (10⁹ M⁻¹) and αIGF-IR scFv-Fc (10⁸ M⁻¹) for IGF-IR were determined using a BIAcore instrument (BIAcore Inc., Piscataway, N.J.). Analytes, at various concentrations, were passed over IGF-IR-immobilized chips (0.3 μg/chip) at a flow rate of 5 μl/min.

T1 sequence (P08069 31-1367 limits assumed, form in doubt): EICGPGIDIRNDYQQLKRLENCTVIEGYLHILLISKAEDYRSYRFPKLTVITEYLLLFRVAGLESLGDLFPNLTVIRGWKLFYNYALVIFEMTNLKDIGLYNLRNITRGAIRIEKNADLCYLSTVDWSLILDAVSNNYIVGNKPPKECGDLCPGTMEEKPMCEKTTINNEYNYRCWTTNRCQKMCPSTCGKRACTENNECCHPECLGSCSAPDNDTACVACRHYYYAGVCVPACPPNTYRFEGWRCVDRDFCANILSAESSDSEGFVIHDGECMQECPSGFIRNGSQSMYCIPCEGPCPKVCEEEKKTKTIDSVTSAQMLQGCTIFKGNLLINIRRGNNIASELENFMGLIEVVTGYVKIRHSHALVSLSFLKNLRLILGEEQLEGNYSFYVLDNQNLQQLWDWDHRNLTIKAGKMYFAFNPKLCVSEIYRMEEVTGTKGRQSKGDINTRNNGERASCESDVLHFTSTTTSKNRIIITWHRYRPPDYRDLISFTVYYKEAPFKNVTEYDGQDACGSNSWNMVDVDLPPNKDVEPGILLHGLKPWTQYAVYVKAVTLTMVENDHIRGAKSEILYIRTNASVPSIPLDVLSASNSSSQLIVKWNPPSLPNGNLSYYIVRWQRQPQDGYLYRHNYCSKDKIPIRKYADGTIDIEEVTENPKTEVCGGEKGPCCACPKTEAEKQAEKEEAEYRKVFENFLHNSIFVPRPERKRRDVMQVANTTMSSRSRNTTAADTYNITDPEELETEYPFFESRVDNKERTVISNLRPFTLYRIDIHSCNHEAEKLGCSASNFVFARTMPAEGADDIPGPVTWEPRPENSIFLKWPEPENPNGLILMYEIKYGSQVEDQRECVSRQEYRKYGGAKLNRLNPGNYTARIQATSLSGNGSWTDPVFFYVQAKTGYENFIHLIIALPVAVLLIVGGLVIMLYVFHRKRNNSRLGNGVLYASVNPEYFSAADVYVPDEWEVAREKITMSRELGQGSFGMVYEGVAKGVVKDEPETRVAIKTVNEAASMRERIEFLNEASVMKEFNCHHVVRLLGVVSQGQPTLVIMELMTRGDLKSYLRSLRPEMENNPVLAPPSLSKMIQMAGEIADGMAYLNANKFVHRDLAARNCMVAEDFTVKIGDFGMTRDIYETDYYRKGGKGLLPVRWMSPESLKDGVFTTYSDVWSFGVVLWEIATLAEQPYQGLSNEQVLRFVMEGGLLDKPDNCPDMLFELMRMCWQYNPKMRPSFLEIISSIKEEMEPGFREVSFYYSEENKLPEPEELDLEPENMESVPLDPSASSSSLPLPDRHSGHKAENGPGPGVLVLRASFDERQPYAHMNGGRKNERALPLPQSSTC

- Ka: 1e+09 M⁻¹
B1: mouse monoclonal antibody 1H7 (antibody, V domains shown)
VH: EVKVVESGGGLVKPGGSLKLSCAASGFTFSIYAMSWVRQTPEKKLEWVASISNGGTTYYPDSVKGRFTISRDNARNILYLQMNSLRSEDTAMYYCARTFYYSFPRAMDYWGQGTSVTVSS
VL: DIVMTQSHKFMSTSVGDRVNITCKASQDVNTAVAWYQQKPGQSPKLLIYWASTRHTGVPDRFTGSGSGTDFTLTISSVQAEDLTLYYCHQHYTTPYTFGGGTNLEIK
notes: Whole murine monoclonal antibody; also called 1H7 mAb

- Ka: 1e+08 M⁻¹
B2: αIGF-IR scFv-Fc (chimeric single-chain antibody against human insulin-like growth factor I receptor) (Fc fusion)
chain: DIVMTQSHKFMSTSVGDRVNITCKASQDVNTAVAWYQQKPGQSPKLLIYWASTRHTGVPDRFTGSGSGTDFTLTISSVQAEDLTLYYCHQHYTTPYTFGGGTNLEIKGGGGSGGGSGGGGSGGGSEVKVVESGGGLVKPGGSLKLSCAASGFTFSIYAMSWVRQTPEKKLEWVASISNGGTTYYPDSVKGRFTISRDNARNILYLQMNSLRSEDTAMYYCARTFYYSFPRAMDYWGQGTSVTVSS
notes: Divalent antibody with an expected Mr of 120 kDa, expressed in NS0 cells and purified on protein A. The signal peptide from the mT84.66 light chain is left out; not shown: human IgG1 Fc domain (cDNA clone from Dr. J. Schlom), SalI fragment inserted into the XhoI site of pcDNA/αIGF-IR scFv
